Data set [1] concerns the target T1, oncostatin M (murine OSM) (Mus musculus, UniProt P53347 P53347:23-206).
T1 sequence: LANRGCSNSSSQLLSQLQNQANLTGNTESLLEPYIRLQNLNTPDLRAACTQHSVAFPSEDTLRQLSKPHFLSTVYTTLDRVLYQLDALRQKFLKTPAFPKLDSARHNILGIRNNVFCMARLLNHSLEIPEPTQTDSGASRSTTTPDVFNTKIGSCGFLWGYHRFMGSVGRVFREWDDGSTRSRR
Put plainly: filter; no binding at any concentration tested. The following applies: tags: R&D Systems.

Data set [2] deals with T2, oncostatin M (hOSM, mature) (Homo sapiens, UniProt P13725 SEQ:26-221).
T2 sequence: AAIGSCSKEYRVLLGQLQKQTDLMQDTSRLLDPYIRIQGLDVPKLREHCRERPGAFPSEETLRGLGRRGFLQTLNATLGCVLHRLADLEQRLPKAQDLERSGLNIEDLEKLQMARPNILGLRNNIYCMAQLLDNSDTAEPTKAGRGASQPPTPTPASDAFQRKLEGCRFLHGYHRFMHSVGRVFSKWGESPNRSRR
The data set is described as follows: filter; SCHMK buffer (1 mM MgCl2, 1 mM CaCl2), 37 C. The conditions noted are these: tags: expressed in E. coli as GST fusion, GST removed by thrombin cleavage.
Procedure: Binding assays were carried out as described (Fitzwater and Polisky supra). […] Transcribed RNA was dephosphorylated using bacterial alkaline phosphatase for 30 min at 65° C. Dephosphorylated RNA was then 5' labelled using polynucleotide kinase and γ-^33P ATP. Radiolabelled RNA was gel purified, and incubated at 37° C. for 30 min with a serial dilution of hOSM in SCHMK buffer (45 μl OSM plus 5 μl radiolabelled RNA at 1000 cpm/μl). […] The filters were washed immediately with 5 ml SCHMK buffer, dried and counted in a liquid scintillation counter. […] The data sets were fitted by the non-linear least squares method using an EXEL software package.

Another data set has as its target TNF alpha (biotinylated) (UniProt P01375 P01375:77-233). The data set is described as follows: competition; no inhibition of TNFalpha binding to TNFR1. The following applies: tags: biotin, NEN; chain copies: 3. The method, then: Nunc Immunoplates (F6 Maxisorp, Life Technologies) were coated overnight (4° C.) with sheep anti-human IgG (Serolabs) (50 µl/well, 1 µg/ml in PBS). Plates were washed (×6 in PBS 0.05% tween 20, using Skatron Plate washer), tapped dry and blocked to reduce non-specific binding (200µl/well, 1% BSA/PBS). […] As a positive control an anti-TNFR1 monoclonal antibody (R&D Systems) was included. […] Following a 2 h incubation (room temperature on a shaking platform) the plates were washed (×6) and developed using ELISA Amplification System (Life Technologies) according to the manufacturer's instructions and the OD measured at 490 nm.

The target in data set [3] is T2, oncostatin M (hOSM, mature). The data set is described as follows: competition; blocks OSM binding to gp130-Fc, ELISA. The following applies: tags: expressed in E. coli as GST fusion, GST removed by thrombin cleavage. The method, then: Effect of Point Mutations on the Ability of OSM-GST to Compete with Wild Type OSM Binding to gp130-Fc in an ELISA Nunc Immunoplates (F6 Maxisorp, Life Technologies) were coated overnight (4° C.) with wild type OSM (produced according to Example 7a); 50 µl/well, 1 µg/ml in carbonate/bicarbonate buffer pH 9.4). Plates were washed (×6 in PBS 0.05% tween 20, using Skatron Plate washer), tapped dry and blocked to reduce non-specific binding (200 µl/well, 1% BSA/PBS). Following 1 h incubation (room temperature on a shaking platform) the plates were tapped dry and wild type (wt) or mutant OSM-GST from Example 9b added (50 µl/well, 20–0.002 µg/ml, titrated in 1%BSA/PBS). As a positive control polyclonal anti-human OSM antibody (R&D Systems) was also tested (20–0.02 µg/ml). […] Following a 5 h incubation (room temperature on a shaking platform) the plates were washed (×6) and developed using ELISA Amplification System (Life Technologies) as manufacturer's instructions and the OD measured at 490 nm. On each plate the total binding was determined by gp130-Fc/conjugate and OSM in the presence of 1%BSA/PBS, and non-specific binding by gp130-Fc/conjugate in absence of OSM, or conjugate binding to OSM in absence of gp130-Fc. […]
Background: In an ELISA, binding on a coated surface is turned into a signal by an enzyme label.

TNF alpha (biotinylated), sequence (P01375 77-233, one chain of several): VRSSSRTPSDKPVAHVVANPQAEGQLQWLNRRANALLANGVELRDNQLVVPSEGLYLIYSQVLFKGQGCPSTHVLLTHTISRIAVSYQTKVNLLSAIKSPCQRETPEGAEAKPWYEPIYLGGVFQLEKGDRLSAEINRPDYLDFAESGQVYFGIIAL

B1: ADR58 (ssRNA)
RNA: GGGAGGACGAUGCGGAUCGCCCUGAACCGGCCCAGCAGACUGCUGACGGCACGAUCAGACGACUCGCCCGA
modifications: 2'-F C and U (2'-F pyrimidines), 2'-OH purines
For B1, the binding result (in data set [1]; in the data set with TNF alpha (biotinylated)) was “no binding” each time. This molecule also returned a Kd in data set [2] of 7 nM. In addition, the IC50 in data set [3] is ~30 pmol/well.

By Kd is commonly meant the equilibrium constant for the complex coming apart. A lower Kd goes with a tighter complex.

Values taken from patent US6706266, “Oncostatin M antagonists” (SmithKline Beecham Corporation).
